Measured values: paper PMC11208909

Biological target: TOPBP1 (UniProt Q92547)
Assay: co-IP of FLAG-HTATSF1 with endogenous TOPBP1
Conditions: reference: wild type; sites S748

HIV Tat-specific factor 1 (HTATSF1) (from UniProt O43719) S748A
binding against the reference: lost
